Assays:
[1] = biological target: T1, CEA (Homo sapiens, UniProt P06731); assay: Dissociation constant (Kd) by fluorescence quench; conditions: binding to CEA
T1 sequence (P06731 35-702): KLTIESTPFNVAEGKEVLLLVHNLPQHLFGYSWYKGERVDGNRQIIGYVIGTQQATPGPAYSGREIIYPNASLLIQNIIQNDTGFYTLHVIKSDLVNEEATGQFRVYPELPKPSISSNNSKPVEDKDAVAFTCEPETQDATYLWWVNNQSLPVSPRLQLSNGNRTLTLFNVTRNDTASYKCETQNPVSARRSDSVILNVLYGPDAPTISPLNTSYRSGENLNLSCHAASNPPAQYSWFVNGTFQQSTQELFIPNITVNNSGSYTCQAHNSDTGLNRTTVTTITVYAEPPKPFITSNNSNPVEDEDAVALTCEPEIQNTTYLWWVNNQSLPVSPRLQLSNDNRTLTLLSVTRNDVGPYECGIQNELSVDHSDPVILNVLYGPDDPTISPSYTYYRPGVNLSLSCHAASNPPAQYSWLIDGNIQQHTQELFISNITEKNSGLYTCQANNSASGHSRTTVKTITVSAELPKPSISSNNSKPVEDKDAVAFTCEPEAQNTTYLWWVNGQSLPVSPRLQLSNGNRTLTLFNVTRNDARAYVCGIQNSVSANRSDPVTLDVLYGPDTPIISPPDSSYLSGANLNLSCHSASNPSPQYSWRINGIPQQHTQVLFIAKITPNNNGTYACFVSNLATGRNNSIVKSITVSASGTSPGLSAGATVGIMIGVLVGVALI
Text: (§1) MFE-23 was subcloned for expression as a soluble scFv linked to a C-terminal myc tag to aid identification during protein purification. […] The specificity against a range of normal human tissues was examined and the only reactivity was weak and with normal large bowel--this is in contrast to many anti-CEA monoclonal antibodies which commonly show cross reaction with a variety of normal tissues^7.

[2] = system: human colorectal adenocarcinomas; assay: Immunohistochemistry with purified scFv on colorectal adenocarcinomas; format: binding; conditions: second antibody against myc tag, positive/tested tumours
Text: as §1

[3] = system: normal human tissues; assay: Immunohistochemistry specificity against normal human tissues; format: binding
Text: as §1

[4] = system: LS174T human colorectal tumour xenografts; assay: Tumour localisation in vivo, Example 1; design: species or system nude mice; conditions: 125 Iodine labelled, FIG. 2, 29 and 35 hours after injection
Text: Tumour localisation in vivo was studied using LS174T human colorectal tumour xenografts in nude mice.

[5] = Isoelectric focusing (pI of scFvs); format: physicochemical; conditions: Amphaline PAG plate pH 3.5-9.5
Text: The isoelectric focusing points of the scFvs were obtained using an Amphaline PAG plate pH 3.5-9.5 (Pharmacia) in accordance with manufacturers instructions.

[6] = Stability of radiolabelled product by gel filtration on S-100 / SDS PAGE; format: physicochemical
[7] = biological target: T1, CEA; assay: CEA binding of radiolabelled product on CEA/Sepharose column; conditions: for counts in bound fraction of CEA column, % of total counts recovered / counts in unbound fraction of CEA column, % of total counts recovered: 125I radiolabelled, Example 5
Method: 75 μg of A5-SC and MFE-23 were iodinated with 0.5 mCi of 125-I using the Chloramine T/L-Tyrosine method^20. […] The stability of the radiolabelled products was tested by gel filtration on S-100.
MFE-cys was radiolabelled with ^99m Tc using a ^99m Tc-D-glucarate transfer method^22. 1 ml of ^99m Tc sodium pertechnetate (40.5 mCi) was added to 12.5 mg of monopotassium D-glucarate, 16.8 mg of sodium bicarbonate and 100 μg of stannous chloride (stannous chloride was made up directly before use at a concentration of 0.2 mg/ml). This solution was left for 1 min at room temperature. Then 0.5 ml was mixed with 200 μg MFE-cys in PBS/1 mM EDTA. The mixture was incubated at room temperature for 30 min and then applied to a PD 10 column (Pharmacia; primed with 3% human serum albumin in PBS) to separate the radiolabelled protein from the free pertechnetate. The efficiency of ^99m Tc uptake was tested by thin layer chromatography, using acetonitrile/water (30:20) as running solvent. An aliquot (100 μl) of diluted radiolabelled scFv (1:30 in PBS/Tween 20) was applied to a 1 ml CEA-sepharose column, containing 1 mg of CEA, to test CEA-binding. The column was washed with 8 volumes of PBS/0.05% Tween 20 and bound material was obtained by adding 3M ammoniumthiocyanate. Further, the stability of the labelled scFv was tested by applying the product (diluted 1:30) to Sephacryl S-100. To test the stability of the radiolabelled product in vivo serum taken from mice injected with the labelled scFv 24 h after administration was also applied to Sephacryl S-100. Stability of the ^99m Tc-labelled product was also tested by gel autoradiography as follows: radiolabelled MFE-cys was subjected to SDS-PAGE using a 15% non-reducing acrylamide gel. The protein was then Western blotted onto Immobilon P (Millipore), and visualised by autoradiography using Kodak X-Omatic cassette and Hyperfilm-MP film (Amersham).
Thin layer chromatography (TLC) was performed to measure % ^125 I incorporation. Antigen binding was also assessed by applying a dilution of the radiolabel to a CEA coupled Sepharose 4B (1 mg CEA; 1 ml column volume). The unbound fraction was washed through with 2 column volumes of PBS and the bound fraction with the same volume of 3M ammonium thiocyanate. A control scFv B1.8 which is not specific for CEA and MFE-23 containing a c-myc tag (MFE-23 myc) were tested as a comparison. The unbound and bound fractions were analysed for ^125 I activity using a gamma counter. Stability assessments were carried out by applying a sample of the radiolabel and unlabelled product to a 15% SDS PAGE minigel. The ^125 I-MFE-23 His was visualised by autoradiography and the unlabelled product by Coomassie blue staining. ^125 I-MFE-23 His was also applied to a 100 ml Sephacryl S-100 column (115×1 cm). 1.5 ml fractions were collected and counted for ^125 I activity.

[8] = system: LS174T human colorectal carcinoma xenograft; assay: Xenograft biodistribution study, Example 2; format: in vivo, nude mice; conditions: for percent injected activity per gram of tissue, tumour: 125-I labelled, i.v. tail vein
Method: Radiolabelled antibody was administered via the tail vein of nude mice bearing the LS174T human colorectal carcinoma xenograft^21. Each mouse received 4.3 μg/30.12 μCi of A5-SC or 4.3 μg/7.73 μCi of MFE-23. Mice were sacrificed at 24 h and 48 h, and tissues were removed and assessed for activity using a gamma counter. 4 mice were used for each time point.

[9] = Storage stability by FPLC (Superose 12); format: physicochemical; conditions: 4° C. and -70° C. up to 6 months
Method: (§2) Samples at each purification stage were analysed for endotoxin levels using Limulus ameobocyte lysate (LAL) gel clot vials (Atlas bioscan. Bognor Regis, UK) according to the manufacturers' recommended instructions; a further aliquot (three times the patient dose) was tested by injection into rabbits (Safepharm Laboratories; Derby, UK) Bacterial supernatant containing MFE-23 His, semipurified MFE-23 His and the final product were tested for the presence of bacterial DNA using the Digoxigenin (DIG) DNA labelling and detection assay (Boeringer Mannheim, Lewes, UK). A probe was constructed using a mixture of equal proportions of MFE-23 plasmid DNA and total bacterial DNA. DIG labelled DNA probes were detected after hybridisation. to target samples by enzyme-linked immunoassay using an anti-DIG alkaline phosphatase conjugate. The probe was sensitive to 12 pg of DNA. […] Stability of the antibody was assessed by storing aliquots at 4° C. and -70° C. and subsequently analysing samples at certain time intervals using a Superose 12 HR 10/30 (Pharmacia) FPLC column. Retention of antigen binding following 6 months storage at 4° C. was measured by applying a known amount of purified antibody to the CEA affinity column (refer to section 2.7) and quantitating the % bound (specific activity). […]

[10] = Pyrogen test by injection into rabbits; format: in vivo; conditions: final product, three times the patient dose
Method: as §2

[11] = biological target: T1, CEA; assay: Retention of antigen binding on storage (CEA affinity column, specific activity); design: CEA was obtained from a patient's colorectal tumour liver metastasis by extraction using perchloric acid; from tissue; host or cells: patient's colorectal tumour liver metastasis, perchloric acid extract
Method: 2 liters of MFE-23 His which had been concentrated and dialysed in PBS (400 ml) was purified using a 6 ml cyanogen bromide activated Sepharose 4B (Pharmacia Biotech.) affinity column coupled to CEA (8 mg). CEA was obtained from a patient's colorectal tumour liver metastasis by extraction using perchloric acid^34. One column pass of 30 ml supernatant per run was performed.
Samples at each purification stage were analysed for endotoxin levels using Limulus ameobocyte lysate (LAL) gel clot vials (Atlas bioscan. Bognor Regis, UK) according to the manufacturers' recommended instructions; a further aliquot (three times the patient dose) was tested by injection into rabbits (Safepharm Laboratories; Derby, UK) Bacterial supernatant containing MFE-23 His, semipurified MFE-23 His and the final product were tested for the presence of bacterial DNA using the Digoxigenin (DIG) DNA labelling and detection assay (Boeringer Mannheim, Lewes, UK). A probe was constructed using a mixture of equal proportions of MFE-23 plasmid DNA and total bacterial DNA. DIG labelled DNA probes were detected after hybridisation. to target samples by enzyme-linked immunoassay using an anti-DIG alkaline phosphatase conjugate. The probe was sensitive to 12 pg of DNA. The final product was also assayed for Cu^2+ content and compared with earlier purification stages, using flame photometry (Trace Element laboratory-University of Surrey). An aliquot was also protein sequenced using amino acid analysis by the CRC protein sequencing facility (University college of London) to confirm homogeneity of the final product and cleavage of the pelB leader sequence in the periplasm. Stability of the antibody was assessed by storing aliquots at 4° C. and -70° C. and subsequently analysing samples at certain time intervals using a Superose 12 HR 10/30 (Pharmacia) FPLC column. Retention of antigen binding following 6 months storage at 4° C. was measured by applying a known amount of purified antibody to the CEA affinity column (refer to section 2.7) and quantitating the % bound (specific activity). These values were compared by applying a known amount of MFE-23 His previously purified using the same column.

B1: MFE-23: anti-CEA single chain Fv selected from a bacteriophage library, sequence of FIG. 3 (SEQ ID No. 2) (protein)
scFv: ETVIMKYLLPTAAAGLLLLAAQPAMAQVKLQQSGAELVRSGTSVKLSCTASGFNIKDSYMHWLRQGPEQGLEWIGWIDPENGDTEYAPKFQGKATFTTDTSSNTAYLQLSSLTSEDTAVYYCNEGTPTGPYYFDYWGQGTTVTVSSGGGGSGGGGSGGGGSENVLTQSPAIMSASPGEKVTITCSASSSVSYMHWFQQKPGTSPKLWIYSTSNLASGVPARFSGSGSGTSYSLTISRMEAEDAATYYCQQRSSYPLTFGAGTKLELKRAA
Kd [1]: 2.5 ± 1.3 nM
typical CEA-reactive pattern in human colorectal adenocarcinomas [2]: 10/10
binding to normal tissues ([3]; liver, kidney, large intestine, tonsil, lung, brain, testis, ovary, cervix, breast, blood films, placenta, spleen, thyroid, oesophagus, stomach, pancreas, lymph node, skeletal muscle): did not bind
reactivity with normal large bowel ([3]; only reactivity seen in range of normal human tissues): weak
tumour imaging (gamma camera) [4]: only tumours are visible
pI [5]: 4.5-5.5
stability after iodination, S-100 elution profile ([6]; 125-I labelled, gel filtration on S-100): one peak
percent of counts recovered on binding to CEA/Sepharose ([7]; 125-I radiolabelled products, Example 2): 38.7%
counts in bound fraction of CEA column, % of total counts recovered [7]: 56%
counts in unbound fraction of CEA column, % of total counts recovered [7]: 43%
percent injected activity per gram of tissue, tumour ([8]; 24 hours): 3.2%
percent injected activity per gram of tissue, tumour ([8]; 48 hours): 1.2%
localisation in liver and spleen ([8]; in contrast with A5-SC): did not show localisation

B2: MFE-23 His: MFE-23 scFv with hexa-histidine tail at the C-terminus, clinical grade (protein)
scFv: QVKLQQSGAELVRSGTSVKLSCTASGFNIKDSYMHWLRQGPEQGLEWIGWIDPENGDTEYAPKFQGKATFTTDTSSNTAYLQLSSLTSEDTAVYYCNEGTPTGPYYFDYWGQGTTVTVSSGGGGSGGGGSGGGGSENVLTQSPAIMSASPGEKVTITCSASSSVSYMHWFQQKPGTSPKLWIYSTSNLASGVPARFSGSGSGTSYSLTISRMEAEDAATYYCQQRSSYPLTFGAGTKLELK
stability of radiolabelled product ([6]; 125I label, SDS PAGE and gel filtration): monomeric, intact and unaggregated
counts in bound fraction of CEA column, % of total counts recovered [7]: 75%
counts in unbound fraction of CEA column, % of total counts recovered [7]: 25%
further counts recovered in bound fraction on reapplying the unbound fraction ([7]; % of total counts loaded, unbound fraction reapplied to CEA column): 58%
antigen binding retained after radiolabelling ([7]; after radiolabelling (125I)): > 75%
stability on storage, FPLC analysis [9]: no evidence of aggregation
pyrogenicity by in vivo rabbit testing [10]: non pyrogenic
antigen binding retained after storage ([11]; 6 months storage at 4° C.): 84%
Specific activity (% bound to CEA column) ([11]; CEA antigen affinity chromatography purified (d), 1 mg applied to column): 89%
Specific activity (% bound to CEA column) ([11]; IMAC purified (a), 2 mg applied to column, 6 months storage at 4° C.): 69%
Specific activity (% bound to CEA column) ([11]; IMAC purified (b), 1 mg applied to column, 6 months storage at 4° C.): 75%
Specific activity (% bound to CEA column) ([11]; IMAC purified (c), 0.5 mg applied to column, 6 months storage at 4° C.): 81%
mean % bound specific activity ([11]; IMAC purified material (a-c)): 75%

Reference: US5876691A, “Antibody against carcionembryonic antigen (CEA)” (Cancer Research Campaign Technology Limited, priority 1993, dated 1999)
